According to patent US6903077, “Methods and products for delivering nucleic acids” (University of Vermont and State Agricultural College):

Assays:
GST-Z3 = tested on: T1, GST-Z3
T1 sequence: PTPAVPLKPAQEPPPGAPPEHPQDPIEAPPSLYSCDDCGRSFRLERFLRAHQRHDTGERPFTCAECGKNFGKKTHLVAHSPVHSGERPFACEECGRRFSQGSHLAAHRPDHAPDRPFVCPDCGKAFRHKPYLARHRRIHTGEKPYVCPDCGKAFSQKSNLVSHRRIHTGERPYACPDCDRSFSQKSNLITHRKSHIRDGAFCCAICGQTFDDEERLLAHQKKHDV

GST-Z2-P123 [1] = tested on: T2, GST-Z2-P123
T2 sequence: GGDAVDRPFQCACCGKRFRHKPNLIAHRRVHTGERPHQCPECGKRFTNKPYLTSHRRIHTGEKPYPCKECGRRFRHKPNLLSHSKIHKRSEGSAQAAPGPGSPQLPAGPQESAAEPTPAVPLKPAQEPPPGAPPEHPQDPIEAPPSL

GST-Z2 = tested on: T3, GST-Z2
T3 sequence: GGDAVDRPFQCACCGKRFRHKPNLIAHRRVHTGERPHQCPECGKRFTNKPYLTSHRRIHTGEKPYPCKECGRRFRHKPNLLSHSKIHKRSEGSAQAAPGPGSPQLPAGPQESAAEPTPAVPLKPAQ

GST-Z1 = tested on: T4, GST-Z1
T4 sequence: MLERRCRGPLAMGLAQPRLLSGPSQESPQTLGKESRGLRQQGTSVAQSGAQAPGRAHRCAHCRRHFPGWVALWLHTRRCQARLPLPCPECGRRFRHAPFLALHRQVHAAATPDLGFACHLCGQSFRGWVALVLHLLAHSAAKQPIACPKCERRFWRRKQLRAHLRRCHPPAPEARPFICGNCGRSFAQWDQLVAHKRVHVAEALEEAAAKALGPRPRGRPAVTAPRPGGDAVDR

[2] = biological target: T5, GST-Z1 (RIP60 zinc fingers 1-5) (Homo sapiens, UniProt Q9BWE0 SEQ:1-234); test: competition; not significantly competing; conditions: tags: GST N-terminal
T5 chain: T4 sequence
Description: (§1) Binding reactions were incubated for 20 minutes at 37° C., 15 min on ice, and then resolved on 6% native polyacrylamide gels in 0.25×TBE buffer. Gels were dried, exposed to Kodak XAR film at −80° C., and signals were detected by autoradiography. Competition binding reactions were assembled as described above with the addition of 0.5, 5, or 50 pmole of unlabeled double-stranded competitor DNA to the reactions prior to the addition of protein. For time course competition assays, 60 ul binding reactions were assembled and incubated as above. Following the incubation step on ice, 50 pmole of unlabeled DSR competitor DNA was added to the binding reactions and samples where removed at the indicated time points, loaded on a 6% native PAGE gel, and resolved by electrophoresis at 25V until all samples were loaded. After the final sample was loaded, the voltage was increased to 100V and samples were resolved by electrophoresis for an additional 1.5 hours. Signals on the dried gels were quantified on a phosphoimager (BioRad model GS 525). A value for % probe bound was calculated as a ratio of protein-bound probe to total probe (bound and unbound probe) per sample and values were plotted against time.
(§2) Binding of the GST-Z2 to the DSR probe was stable in the presence of 1000-fold excess of IBF, SV-AT, or Py-AT competitors, but was competed with 100-fold excess of unlabeled DSR DNA. […]

[3] = biological target: T6, GST-Z2 (RIP60 zinc fingers 6-8 plus part of PRR, GST-Z2-P12) (Homo sapiens, UniProt Q9BWE0 SEQ:1-126); test: competition; no competition at 1000-fold excess; conditions: tags: GST N-terminal
T6 sequence: T3 sequence
Description: as §1, §2

[4] = biological target: T6, GST-Z2 (RIP60 zinc fingers 6-8 plus …); test: competition; USR competes for binding to DSR; conditions: tags: GST N-terminal
Description: as §1, §2

[5] = biological target: T5, GST-Z1 (RIP60 zinc fingers 1-5); test: EMSA; footprinting and gel shift; unstable binding; conditions: tags: GST N-terminal
GST-Z12 [6] = biological target: T7, GST-Z12 (Homo sapiens, UniProt Q9BWE0 SEQ:1-349); test: competition; USR competes; conditions: tags: GST N-terminal
T7 chain: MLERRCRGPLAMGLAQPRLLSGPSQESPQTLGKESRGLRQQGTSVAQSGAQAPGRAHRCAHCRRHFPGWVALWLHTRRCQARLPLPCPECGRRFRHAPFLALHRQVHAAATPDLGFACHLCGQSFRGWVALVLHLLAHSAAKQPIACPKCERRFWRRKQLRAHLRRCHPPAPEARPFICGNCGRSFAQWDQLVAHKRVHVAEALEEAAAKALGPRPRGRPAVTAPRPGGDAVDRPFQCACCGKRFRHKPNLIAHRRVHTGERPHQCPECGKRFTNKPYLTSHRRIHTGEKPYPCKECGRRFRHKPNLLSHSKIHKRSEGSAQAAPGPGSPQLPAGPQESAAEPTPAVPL
Description: as §1, §2

GST-Z2-P123 [7] = biological target: T8, GST-Z2-P123 (Homo sapiens, UniProt Q9BWE0 SEQ:1-147); test: EMSA; multimers; conditions: tags: GST N-terminal; label: 32P; 5' overhangs
T8 sequence: T2 sequence

GST-Z2-P1 = biological target: T9, GST-Z2-P1 (Homo sapiens, UniProt Q9BWE0 SEQ:225-337); test: EMSA; no multimers; conditions: tags: GST N-terminal; label: 32P; 5' overhangs
T9 sequence: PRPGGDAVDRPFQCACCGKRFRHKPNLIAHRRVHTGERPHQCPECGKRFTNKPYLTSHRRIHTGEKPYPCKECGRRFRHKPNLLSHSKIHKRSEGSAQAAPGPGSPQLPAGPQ

GST-Z12 [8] = biological target: T7, GST-Z12; test: EMSA; specific; conditions: tags: GST N-terminal; label: 32P; 5' overhangs
Description: DSR (50 pmole) was labeled by Klenow fill-in reaction of 5' overhangs in the presence of [α-^32P]-dATP. Other probes were end-labeled with polynucleotide kinase and [γ-^32P]. Binding reactions (30 ul) contained 0.05 pmole labeled DSR probe, 40 mM KCl, 10 mM HEPES (pH 8.0), 4% Ficoll, 33 ng/ul poly dIdC, 1 mM DTT, 16.7 uM ZnCl_2, and 0.5–10 ug of protein. Binding reactions were incubated for 20 minutes at 37° C., 15 min on ice, and then resolved on 6% native polyacrylamide gels in 0.25×TBE buffer. Gels were dried, exposed to Kodak XAR film at −80° C., and signals were detected by autoradiography. Competition binding reactions were assembled as described above with the addition of 0.5, 5, or 50 pmole of unlabeled double-stranded competitor DNA to the reactions prior to the addition of protein. For time course competition assays, 60 ul binding reactions were assembled and incubated as above. […] Signals on the dried gels were quantified on a phosphoimager (BioRad model GS 525). A value for % probe bound was calculated as a ratio of protein-bound probe to total probe (bound and unbound probe) per sample and values were plotted against time. […]

[9] = biological target: T5, GST-Z1 (RIP60 zinc fingers 1-5); test: EMSA; competed by 100-fold DSR; less stable than GST-Z2; conditions: tags: GST N-terminal; label: 32P; 5' overhangs
Description: (§3) A value for % probe bound was calculated as a ratio of protein-bound probe to total probe (bound and unbound probe) per sample and values were plotted against time.
(§4) Binding of the GST-Z2 to the DSR probe was stable in the presence of 1000-fold excess of IBF, SV-AT, or Py-AT competitors, but was competed with 100-fold excess of unlabeled DSR DNA. […] In contrast, binding of GST-Z3 to the DSR probe was eliminated by a 1000-fold excess of all unlabelled competitors tested. […] In a like manner, the USR was also able to compete for binding of these proteins to the DSR.
(§5) To ascertain if Z1 and Z2 show any differences in binding activity, the stability of Z1 and Z2 complexes with the DSR was examined in competition gel shift assays. Identical amounts of GST-Z1 and GST-Z2 were incubated with ^32P-labeled probe for 20 min, and then a 1000-fold molar excess of unlabeled competitor DSR was added. Samples were removed from the binding reactions at various times thereafter and loaded directly onto non-denaturing gels running at low voltage. After all the samples were loaded, the voltage was increased to 100V for 1 hr. After drying the gels, the signals in the shifted complexes were quantified by phosphoimaging.

[10] = biological target: T6, GST-Z2 (RIP60 zinc fingers 6-8 plus …); test: EMSA; competed by 100-fold DSR; more stable than GST-Z1; conditions: tags: GST N-terminal; label: 32P; 5' overhangs
Description: as §3, §4, §5

[11] = biological target: the molecule itself; test: Gel shift Multimers, self-association on DNA
Description: as §1, with “Binding reactions (30 ul) contained 0.05 pmole labeled DSR probe, 40 mM KCl, 10 mM HEPES (pH 8.0), 4% Ficoll, 33 ng/ul poly dIdC, 1 mM DTT, 16.7 uM ZnCl_2, and 0.5–10 ug of protein. Binding” for “Binding”, “time. […]” for “time.”

Q: What does the source list for casein kinase II?
A: phosphorylation in vitro (32P-ATP, SDS gel, autoradiography) (GST-Z3): neither GST-Z1 nor GST-Z3 were phosphorylated to any great degree; phosphorylation in vitro (32P-ATP, SDS gel, autoradiography) (GST-Z2-P123 [1]): Both GST-Z2 and GST-Z2P123 were phosphorylated; phosphorylation in vitro (32P-ATP, SDS gel, autoradiography) (GST-Z2): Only the GST-Z2 polypeptide, which contains the casein kinase II phosphorylation domain was phosphorylated; phosphorylation in vitro with and without DNA (GST-Z2): GST-Z2 polypeptide was phosphorylated by casein kinase II in the absence of DNA. However, the extent of phosphorylation increased in the presence of the double stranded DRS oligo, the linearized plasmid pCH127 and the supercoiled pCH127; phosphorylation in vitro (32P-ATP, SDS gel, autoradiography) (GST-Z1): neither GST-Z1 nor GST-Z3 were phosphorylated to any great degree

B1: IBF (OCH13/OCH14) (dsDNA)
DNA 1: GATCCGGGAAGGCGGGCGCTGGGGGCGCTGCGGCGCTGCGCTCCACCT
DNA 2: GATCTAGGTGGAGCGCAGCGCCGCAGCGCCCCCAGCGCCCGCCTTCCCG
Q: Which results are given for B1?
A: binding result [2]: no binding; binding result [3]: no binding

B2: USR (OCH39/OCH40) (dsDNA)
DNA 1: GATCTTAACAGTAATAATAAATATCT
DNA 2: GATCAGATATTTATTATTACTGTTAA
Q: Does B2 bind [4]?
A: binds

Q: Does B2 bind [5]?
A: binds

Q: Does B2 bind (GST-Z12 [6])?
A: binds

B3: Py-AT (OCH37/OCH38) (dsDNA)
DNA 1: CTGTTTTTTTTAGTATTAAGC
DNA 2: GCTTAATACTAAAAAAAACAG
Q: Does B3 bind [3]?
A: no binding

B4: DSR (OCH7/OCH8) (dsDNA)
DNA 1: GATCTTTTATTATTATTATTAGTTCG
DNA 2: GATCCGAACTAATAATAATAATAAAA
Q: Does B4 bind (GST-Z2-P123 [7])?
A: binds

Q: Does B4 bind (GST-Z2-P1)?
A: binds

Q: Does B4 bind (GST-Z12 [8])?
A: binds

Q: Does B4 bind [9]?
A: binds

Q: Does B4 bind [10]?
A: binds

B5: GST-Z2 (other)
chain: T3 sequence
notes: also called GST-Z2(P12); GST-Z2-P12; not shown: glutathione-S-transferase (GST) purification tag, 26 kD, encoded by pGEX-2T (Pharmacia Biotech), at the amino terminus
Q: Does B5 bind [11]?
A: binds
